The values below come from article PMC5484534 (Molecular cell, 2017).

The labels stand for the following.
B1: CWC27: human nuclear cyclophilin (protein, UniProt Q6UX04 2-472, looked up)
Spliceosome-associated …: SNIYIQEPPTNGKVLLKTTAGDIDIELWSKEAPKACRNFIQLCLEAYYDNTIFHRVVPGFIVQGGDPTGTGSGGESIYGAPFKDEFHSRLRFNRRGLVAMANAGSHDNGSQFFFTLGRADELNNKHTIFGKVTGDTVYNMLRLSEVDIDDDERPHNPHKIKSCEVLFNPFDDIIPREIKRLKKEKPEEEVKKLKPKGTKNFSLLSFGEEAEEEEEEVNRVSQSMKGKSKSSHDLLKDDPHLSSVPVVESEKGDAPDLVDDGEDESAEHDEYIDGDEKNLMRERIAKKLKKDTSANVKSAGEGEVEKKSVSRSEELRKEARQLKRELLAAKQKKVENAAKQAEKRSEEEEAPPDGAVAEYRREKQKYEALRKQQSKKGTSREDQTLALLNQFKSKLTQAIAETPENDIPETEVEDDEGWMSHVLQFEDKSRKVKDASMQDSDTFEIYDPRNPVNKRRREESKKLMREKKERR
B2: PPWD: human nuclear cyclophilin (protein, UniProt Q96BP3 2-646, looked up)
Peptidylprolyl isomerase …: AAESGSDFQQRRRRRRDPEEPEKTELSERELAVAVAVSQENDEENEERWVGPLPVEATLAKKRKVLEFERVYLDNLPSASMYERSYMHRDVITHVVCTKTDFIITASHDGHVKFWKKIEEGIEFVKHFRSHLGVIESIAVSSEGALFCSVGDDKAMKVFDVVNFDMINMLKLGYFPGQCEWIYCPGDAISSVAASEKSTGKIFIYDGRGDNQPLHIFDKLHTSPLTQIRLNPVYKAVVSSDKSGMIEYWTGPPHEYKFPKNVNWEYKTDTDLYEFAKCKAYPTSVCFSPDGKKIATIGSDRKVRIFRFVTGKLMRVFDESLSMFTELQQMRQQLPDMEFGRRMAVERELEKVDAVRLINIVFDETGHFVLYGTMLGIKVINVETNRCVRILGKQENIRVMQLALFQGIAKKHRAATTIEMKASENPVLQNIQADPTIVCTSFKKNRFYMFTKREPEDTKSADSDRDVFNEKPSKEEVMAATQAEGPKRVSDSAIIHTSMGDIHTKLFPVECPKTVENFCVHSRNGYYNGHTFHRIIKGFMIQTGDPTGTGMGGESIWGGEFEDEFHSTLRHDRPYTLSMANAGSNTNGSQFFITVVPTPWLDNKHTVFGRVTKGMEVVQRISNVKVNPKTDKPYEDVSIINITVK
B3: PPIL2: human nuclear cyclophilin (protein, UniProt Q13356 1-520, looked up)
RING-type E3 …: MGKRQHQKDKMYITCAEYTHFYGGKKPDLPQTNFRRLPFDHCSLSLQPFVYPVCTPDGIVFDLLNIVPWLKKYGTNPSNGEKLDGRSLIKLNFSKNSEGKYHCPVLFTVFTNNTHIVAVRTTGNVYAYEAVEQLNIKAKNFRDLLTDEPFSRQDIITLQDPTNLDKFNVSNFYHVKNNMKIIDPDEEKAKQDPSYYLKNTNAETRETLQELYKEFKGDEILAATMKAPEKKKVDKLNAAHYSTGKVSASFTSTAMVPETTHEAAAIDEDVLRYQFVKKKGYVRLHTNKGDLNLELHCDLTPKTCENFIRLCKKHYYDGTIFHRSIRNFVIQGGDPTGTGTGGESYWGKPFKDEFRPNLSHTGRGILSMANSGPNSNRSQFFITFRSCAYLDKKHTIFGRVVGGFDVLTAMENVESDPKTDRPKEEIRIDATTVFVDPYEEADAQIAQERKTQLKVAPETKVKSSQPQAGSQGPQTFRQGVGKYINPAATKRAAEEEPSTSATVPMSKKKPSRGFGDFSSW
B4: PPIL1: human nuclear cyclophilin (protein, UniProt Q9Y3C6 1-166, looked up)
Peptidyl-prolyl cis-trans …: MAAIPPDSWQPPNVYLETSMGIIVLELYWKHAPKTCKNFAELARRGYYNGTKFHRIIKDFMIQGGDPTGTGRGGASIYGKQFEDELHPDLKFTGAGILAMANAGPDTNGSQFFVTLAPTQWLDGKHTIFGRVCQGIGMVNRVGMVETNSQDRPVDDVKIIKAYPSG
B5: PPIL3: human nuclear cyclophilin (protein, UniProt Q9H2H8 2-161, looked up)
Peptidyl-prolyl cis-trans …: SVTLHTDVGDIKIEVFCERTPKTCENFLALCASNYYNGCIFHRNIKGFMVQTGDPTGTGRGGNSIWGKKFEDEYSEYLKHNVRGVVSMANNGPNTNGSQFFITYGKQPHLDMKYTVFGKVIDGLETLDELEKLPVNEKTYRPLNDVHIKDITIHANPFAQ
modifications: His6-GST tag
B6: PPIG: human nuclear cyclophilin (protein, UniProt Q13427 1-754, looked up)
Peptidyl-prolyl cis-trans …: MGIKVQRPRCFFDIAINNQPAGRVVFELFSDVCPKTCENFRCLCTGEKGTGKSTQKPLHYKSCLFHRVVKDFMVQGGDFSEGNGRGGESIYGGFFEDESFAVKHNKEFLLSMANRGKDTNGSQFFITTKPTPHLDGHHVVFGQVISGQEVVREIENQKTDAASKPFAEVRILSCGELIPKSKVKKEEKKRHKSSSSSSSSSSDSDSSSDSQSSSDSSDSESATEEKSKKRKKKHRKNSRKHKKEKKKRKKSKKSASSESEAENLEAQPQSTVRPEEIPPIPENRFLMRKSPPKADEKERKNRERERERECNPPNSQPASYQRRLLVTRSGRKIKGRGPRRYRTPSRSRSRDRFRRSETPPHWRQEMQRAQRMRVSSGERWIKGDKSELNEIKENQRSPVRVKERKITDHRNVSESPNRKNEKEKKVKDHKSNSKERDIRRNSEKDDKYKNKVKKRAKSKSRSKSKEKSKSKERDSKHNRNEEKRMRSRSKGRDHENVKEKEKQSDSKGKDQERSRSKEKSKQLESKSNEHDHSKSKEKDRRAQSRSRECDITKGKHSYNSRTRERSRSRDRSRRVRSRTHDRDRSRSKEYHRYREQEYRRRGRSRSRERRTPPGRSRSKDRRRRRRDSRSSEREESQSRNKDKYRNQESKSSHRKENSESEKRMYSKSRDHNSSNNSREKKADRDQSPFSKIKQSSQDNELKSSMLKNKEDEKIRSSVEKENQKSKGQENDHVHEKNKKFDHESSPGTDEDKSG

The first data set relates to BMAL1 TAD. As to the kind of experiment: Cyclophilin acceleration of TAD switch isomerization by 15N-1H ZZ-exchange NMR. The conditions noted are these: room temperature (22.68°C), 400 μM 15N BMAL1 TAD + 100 μM cyclophilin, 20 mM HEPES pH 7.0 (pH 7.5 for His6GST-PPIL3), 100 mM NaCl, 2 mM TCEP. The class given is biochemical, mouse.
As for B1, the “activity on TAD switch isomerization, in words” value (shortened to “activity … in words”) is given as “either not active on the TAD or had activity that was below the detection limit”.
Still for that read-out and setting: as for B2, the entry is “either not active on the TAD or had activity that was below the detection limit”.
On to B3, for which the “activity … in words” value is “either not active on the TAD or had activity that was below the detection limit”.
Regarding B4, the “activity … in words” value is given as “significantly increased the rate of isomerization in BMAL1”.
In the case of B5, the “activity … in words” value was “significantly increased the rate of isomerization in BMAL1”.
As to B6, the “activity … in words” value is reported as “significantly increased the rate of isomerization in BMAL1”.

Test system in another data set: not given
Assay: not given
The settings on record: ref Davis et al., 2010; cited from earlier work.
In the case of B1, the “activity on generic peptide substrates” value was “lack activity on generic peptide substrates”.
For the molecule B3, the “activity on generic peptide substrates” value was “lack activity on generic peptide substrates”.
